Source: publication PMC3411640, “Molecular Breeding of a Fungus Producing a Precursor Diterpene Suitable for Semi-Synthesis by Dissection of the Biosynthetic Machinery” (PLoS ONE, 2012)

Assays:
[1] = tested on: O=c1ccn([C@@H]2O[C@H](CO[P@@](=O)(O)O[P@@](=O)(O)O[C@H]3O[C@H](CO)[C@@H](O)[C@H](O)[C@H]3O)[C@@H](O)[C@H]2O)c(=O)[nH]1; experiment: HPLC, Hanes-Woolf; assay type: biochemical, Diaporthe amygdali; conditions: 0.1 mM 9 (FC H aglycon), 50 mM MES pH 6.0, 30°C
[2] = tested on: CC(=O)SCCNC(=O)CCNC(=O)[C@H](O)C(C)(C)COP(=O)(O)OP(=O)(O)OC[C@H]1O[C@@H](n2cnc3c(N)ncnc32)[C@H](O)[C@@H]1OP(=O)(O)O; experiment: HPLC, Hanes-Woolf; assay type: biochemical, Diaporthe amygdali; conditions: 203 µM 14 (dideacetyl-FC A), 50 mM Tris-HCl pH 8.5, 35°C

| Substance | Km [1] [µM] | kcat [1] [S^−1] | Km [2] [µM] | kcat [2] |
| --- | --- | --- | --- | --- |
| glycosyltransferase (Orf6) (Diaporthe amygdali) | 520 ± 46 | 0.40±0.044 | – | – |
| acetyltransferase-2 (Orf12) (Diaporthe amygdali) | – | – | 63 ± 6.6 | 3.5×10^−3±0.17×10^−3 S^−1 |
